Test results: US20030068675, “Position dependent recognition of GNN nucleotide triplets by zinc fingers” (published 2003)
Residue numbers refer to the chain shown, from its start.

Legend:
Test in all cases: EMSA
Conditions in all cases: tags: MBP fusion
ZFP SBS#468 = ZFP SBS#468 (synthetic)
Summary of the method: (§1)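 Purified ZFP was titrated against labeled double-stranded target (1 nM or lower, at least 10-fold below expected Kd) carrying the natural binding site with flanks. Binding buffer was 10 mM Tris pH 7.5, 100 mM KCl, 1 mM MgCl2, 0.1 mM ZnCl2, 5 mM DTT, 10% glycerol, 0.02% BSA, with equilibration for at least 45 min. Bound and free target were separated on a 10% polyacrylamide gel.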

ZFP SBS#467 = ZFP SBS#467 (synthetic)
Summary of the method: as §1

ZFP SBS#466 = ZFP SBS#466 (synthetic)
Summary of the method: as §1

ZFP SBS#1110 = molecular target: T1, ZFP SBS#1110 (synthetic)
T1 chain: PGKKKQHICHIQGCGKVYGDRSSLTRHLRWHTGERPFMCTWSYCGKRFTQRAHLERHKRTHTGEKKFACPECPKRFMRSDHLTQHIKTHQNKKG
Summary of the method: as §1

ZFP SBS#1109 = molecular target: T2, ZFP SBS#1109 (synthetic)
T2 chain: T1 chain with D20E, S22G, S23D
Summary of the method: as §1

ZFP SBS#1111 = molecular target: T3, ZFP SBS#1111 (synthetic)
T3 chain: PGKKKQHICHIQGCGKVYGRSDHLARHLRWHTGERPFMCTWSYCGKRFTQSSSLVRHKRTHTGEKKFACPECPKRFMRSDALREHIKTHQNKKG
Summary of the method: as §1

ZFP SBS#1112 = ZFP SBS#1112 (synthetic)
Summary of the method: as §1

ZFP SBS#1113 = ZFP SBS#1113 (synthetic)
Summary of the method: as §1

ZFP SBS#1114 = molecular target: T4, ZFP SBS#1114 (synthetic)
T4 chain: T3 chain with R20Q, D22S, H23N, Q50T, S52G, V55T, A81N
Summary of the method: as §1

ZFP SBS#1115 = ZFP SBS#1115 (synthetic)
Summary of the method: as §1

ZFP SBS#469 = molecular target: T5, ZFP SBS#469 (synthetic)
T5 chain: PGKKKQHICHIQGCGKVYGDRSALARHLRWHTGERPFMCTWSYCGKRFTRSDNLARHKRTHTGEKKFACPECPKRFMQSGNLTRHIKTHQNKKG
Summary of the method: as §1

ZFP SBS#1118 = molecular target: T6, ZFP SBS#1118 (synthetic)
T6 chain: T1 chain with S23A, H81N, Q84T
Summary of the method: as §1

ZFP SBS#1119 = molecular target: T7, ZFP SBS#1119 (synthetic, UniProt P08047)
T7 chain: T5 chain with D20T, R21S, S22G, A23H, A25V, Q78R, G80D, N81H, R84T
Summary of the method: as §1

ZFP SBS#1120 = molecular target: T8, ZFP SBS#1120 (synthetic)
T8 chain: T1 chain with D20R, R21S, S22D, S23E, Q50D, A52S, H53N, E55T
Summary of the method: as §1

ZFP SBS#1121 = molecular target: T9, ZFP SBS#1121 (synthetic)
T9 chain: T3 chain with R20E, S21R, D22G, H23D, A25T, Q50R, S52D, S53A, V55T
Summary of the method: as §1

ZFP SBS#1122 = molecular target: T10, ZFP SBS#1122 (synthetic)
T10 chain: T1 chain with Q50R, R51S, A52D, H53A, E55T, H81A, T83R, Q84E
Summary of the method: as §1

ZFP SBS#1123 = ZFP SBS#1123 (synthetic)
Summary of the method: as §1

ZFP SBS#1124 = molecular target: T11, ZFP SBS#1124 (synthetic)
T11 chain: T3 chain with R20Q, D22G, Q50T, S52G, S53N, R83T, E84R
Summary of the method: as §1

ZFP SBS#472 = molecular target: T12, ZFP SBS#472 (synthetic)
T12 chain: T3 chain with D22S, A25T, R26T, Q50D, S51R, S53A, V55A, A81N, R83A, E84R
Summary of the method: as §1

ZFP SBS#1130 = molecular target: T13, ZFP SBS#1130 (synthetic)
T13 chain: T1 chain with S23N, R51S, A52G, H53D, E55T, R78M, D80H, T83S, Q84R
Summary of the method: as §1

ZFP SBS#1133 = molecular target: T14, ZFP SBS#1133 (synthetic, UniProt P08047)
T14 chain: T3 chain with R20Q, S21R, D22A, A25E, Q50T, S52G, S53E, A81H, R83S, E84R
Summary of the method: as §1

ZFP SBS#1132 = molecular target: T15, ZFP SBS#1132 (synthetic, UniProt P08047)
T15 chain: T3 chain with R20Q, D22G, Q50T, S52G, S53E, A81H, R83S, E84R
Summary of the method: as §1

ZFP SBS#1134 = ZFP SBS#1134 (synthetic, UniProt P08047)
Summary of the method: as §1

ZFP SBS#1135 = ZFP SBS#1135 (synthetic, UniProt P08047)
Summary of the method: as §1

ZFP SBS#1137 = ZFP SBS#1137 (synthetic)
Summary of the method: as §1

ZFP SBS#1136 = molecular target: T16, ZFP SBS#1136 (synthetic)
T16 chain: T1 chain with D20R, R21S, S22D, S23A, H81T, T83R, Q84E
Summary of the method: as §1

ZFP SBS#1138 = ZFP SBS#1138 (synthetic)
Summary of the method: as §1

ZFP SBS#259 = ZFP SBS#259 (synthetic)
Summary of the method: as §1

ZFP SBS#1149 = ZFP SBS#1149 (synthetic)
Summary of the method: as §1

ZFP SBS#1148 = molecular target: T17, ZFP SBS#1148 (synthetic)
T17 chain: T3 chain with H23N, A25T, Q50R, S52D, S53N, V55T, S79G, R83T, E84S
Summary of the method: as §1

ZFP SBS#1153 = molecular target: T18, ZFP SBS#1153 (synthetic)
T18 chain: T3 chain with R20Q, S21R, D22A, Q50T, S52G, S53E, A81N, R83T, E84Q
Summary of the method: as §1

ZFP SBS#1152 = molecular target: T19, ZFP SBS#1152 (synthetic)
T19 chain: T3 chain with R20Q, D22G, Q50T, S52G, S53E, A81N, R83T, E84Q
Summary of the method: as §1

ZFP SBS#1154 = molecular target: T20, ZFP SBS#1154 (synthetic, UniProt P08047)
T20 chain: T3 chain with H23N, A25T, R26T, Q50R, S52D, S53E, V55Q
Summary of the method: as §1

Chain of ZFP SBS#1115 (synthetic) (chain, as listed by the source): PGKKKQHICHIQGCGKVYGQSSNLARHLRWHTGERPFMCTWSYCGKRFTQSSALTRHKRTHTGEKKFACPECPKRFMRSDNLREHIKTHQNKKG
Chain of ZFP SBS#467 (synthetic) (chain, as listed by the source): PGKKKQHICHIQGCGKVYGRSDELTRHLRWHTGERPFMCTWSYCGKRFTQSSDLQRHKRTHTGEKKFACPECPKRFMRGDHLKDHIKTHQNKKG
Chain of ZFP SBS#1123 (synthetic) (chain, as listed by the source): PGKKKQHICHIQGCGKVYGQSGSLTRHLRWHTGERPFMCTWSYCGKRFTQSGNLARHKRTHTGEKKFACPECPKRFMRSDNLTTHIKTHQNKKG
Chain of ZFP SBS#1112 (synthetic) (chain, as listed by the source): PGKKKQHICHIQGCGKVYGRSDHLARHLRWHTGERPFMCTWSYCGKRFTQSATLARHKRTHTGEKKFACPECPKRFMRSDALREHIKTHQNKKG
Chain of ZFP SBS#466 (synthetic) (chain, as listed by the source): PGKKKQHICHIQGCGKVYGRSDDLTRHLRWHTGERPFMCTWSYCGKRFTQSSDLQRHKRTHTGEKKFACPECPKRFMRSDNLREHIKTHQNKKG
Chain of ZFP SBS#468 (synthetic) (chain, as listed by the source): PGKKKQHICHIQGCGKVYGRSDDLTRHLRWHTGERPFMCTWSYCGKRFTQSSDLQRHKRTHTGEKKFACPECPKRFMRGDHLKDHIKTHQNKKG
Chain of ZFP SBS#1138 (synthetic) (chain, as listed by the source): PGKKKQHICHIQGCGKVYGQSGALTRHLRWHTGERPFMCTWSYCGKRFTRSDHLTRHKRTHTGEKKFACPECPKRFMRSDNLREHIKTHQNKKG

B1: CAGGCTGCGC (dsDNA)
DNA 1: CAGGCTGCGC
DNA 2: GCGCAGCCTG
In the case of B1, the Kd (ZFP SBS#468) is reported as 42 nM, the Kd (ZFP SBS#467) is reported as 800 nM and the Kd (ZFP SBS#466) is reported as 65 nM.

B2: AGGGGAGCC (dsDNA)
DNA 1: AGGGGAGCC
DNA 2: GGCTCCCCT
B2 showed a Kd (ZFP SBS#1110) of 0.095 nM and a Kd (ZFP SBS#1109) of 0.347 nM.

B3: CTGGTAGGG (dsDNA)
DNA 1: CTGGTAGGG
DNA 2: CCCTACCAG
Binder B3 has a Kd (ZFP SBS#1111) of 0.095 nM and a Kd (ZFP SBS#1112) of 0.125 nM.

B4: CTGGGGGCA (dsDNA)
DNA 1: CTGGGGGCA
DNA 2: TGCCCCCAG
With B4 the Kd (ZFP SBS#1113) was 0.06 nM.

B5: CAGGTTGAT (dsDNA)
DNA 1: CAGGTTGAT
DNA 2: ATCAACCTG
B5 was tested, and the Kd (ZFP SBS#1114) was 2.75 nM and the Kd (ZFP SBS#1115) was 0.7 nM.

B6: GAAGAGGTCT (dsDNA)
DNA 1: GAAGAGGTCT
DNA 2: AGACCTCTTC
With B6 the Kd (ZFP SBS#469) was 13.5 nM.

B7: TAGGGAGTC (dsDNA)
DNA 1: TAGGGAGTC
DNA 2: GACTCCCTA
Work on B7 yielded a Kd (ZFP SBS#1118) of 1.4 nM.

B8: TGGGAGGGT (dsDNA)
DNA 1: TGGGAGGGT
DNA 2: ACCCTCCCA
Work on B8 yielded a Kd (ZFP SBS#1119) of 0.1 nM.

B9: AGGGACGCG (dsDNA)
DNA 1: AGGGACGCG
DNA 2: CGCGTCCCT
Work on B9 yielded a Kd (ZFP SBS#1120) of 2.73 nM.

B10: CTGGTGGCC (dsDNA)
DNA 1: CTGGTGGCC
DNA 2: GGCCACCAG
For B10, the Kd (ZFP SBS#1121) was 2.76 nM and the Kd (ZFP SBS#1122) was 0.101 nM.

B11: TAGGAAGCA (dsDNA)
DNA 1: TAGGAAGCA
DNA 2: TGCTTCCTA
In the case of B11, the Kd (ZFP SBS#1123) is reported as 0.065 nM.

B12: GTGGATGGA (dsDNA)
DNA 1: GTGGATGGA
DNA 2: TCCATCCAC
B12 was tested, and the Kd (ZFP SBS#1124) was 0.101 nM.

B13: GAGGTCTGGA (dsDNA)
DNA 1: GAGGTCTGGA
DNA 2: TCCAGACCTC
B13 gave a Kd (ZFP SBS#472) of 80 nM.

B14: GGTGCAGAC (dsDNA)
DNA 1: GGTGCAGAC
DNA 2: GTCTGCACC
B14 showed a Kd (ZFP SBS#1130) of 0.1 nM.

B15: GGGGCTGGA (dsDNA)
DNA 1: GGGGCTGGA
DNA 2: TCCAGCCCC
B15 showed a Kd (ZFP SBS#1133) of 0.5 nM and a Kd (ZFP SBS#1132) of 0.055 nM.

B16: TGGGGGTGG (dsDNA)
DNA 1: TGGGGGTGG
DNA 2: CCACCCCCA
With B16 the Kd (ZFP SBS#1134) was 0.067 nM.

B17: GCGGCGGGG (dsDNA)
DNA 1: GCGGCGGGG
DNA 2: CCCCGCCGC
B17 showed a Kd (ZFP SBS#1135) of 0.025 nM.

B18: CCGGGAGTG (dsDNA)
DNA 1: CCGGGAGTG
DNA 2: CACTCCCGG
In the case of B18, the Kd (ZFP SBS#1137) is reported as 0.085 nM and the Kd (ZFP SBS#1136) is reported as 0.225 nM.

B19: CAGGGGGTA (dsDNA)
DNA 1: CAGGGGGTA
DNA 2: TACCCCCTG
Binder B19 has a Kd (ZFP SBS#1138) of 0.027 nM.

B20: GCAGAGGAG (dsDNA)
DNA 1: GCAGAGGAG
DNA 2: CTCCTCTGC
B20 was tested, and the Kd (ZFP SBS#259) was 250 nM.

B21: TTGGAGGAG (dsDNA)
DNA 1: TTGGAGGAG
DNA 2: CTCCTCCAA
B21 gave a Kd (ZFP SBS#1149) of 0.004 nM and a Kd (ZFP SBS#1148) of 0.006 nM.

B22: AAGGCTGGA (dsDNA)
DNA 1: AAGGCTGGA
DNA 2: TCCAGCCTT
B22 was tested, and the Kd (ZFP SBS#1153) was 8.2 nM and the Kd (ZFP SBS#1152) was 1.6 nM.

B23: CTGGCGTAG (dsDNA)
DNA 1: CTGGCGTAG
DNA 2: CTACGCCAG
B23 was tested, and the Kd (ZFP SBS#1154) was 1.04 nM.
